T1: IFN-gamma receptor on HEK-Dual cells (Human IFN-γ SEAP/Luciferase Reporter Cells, hkd-ifng)
T1 sequence (P15260 whole entry, looked up): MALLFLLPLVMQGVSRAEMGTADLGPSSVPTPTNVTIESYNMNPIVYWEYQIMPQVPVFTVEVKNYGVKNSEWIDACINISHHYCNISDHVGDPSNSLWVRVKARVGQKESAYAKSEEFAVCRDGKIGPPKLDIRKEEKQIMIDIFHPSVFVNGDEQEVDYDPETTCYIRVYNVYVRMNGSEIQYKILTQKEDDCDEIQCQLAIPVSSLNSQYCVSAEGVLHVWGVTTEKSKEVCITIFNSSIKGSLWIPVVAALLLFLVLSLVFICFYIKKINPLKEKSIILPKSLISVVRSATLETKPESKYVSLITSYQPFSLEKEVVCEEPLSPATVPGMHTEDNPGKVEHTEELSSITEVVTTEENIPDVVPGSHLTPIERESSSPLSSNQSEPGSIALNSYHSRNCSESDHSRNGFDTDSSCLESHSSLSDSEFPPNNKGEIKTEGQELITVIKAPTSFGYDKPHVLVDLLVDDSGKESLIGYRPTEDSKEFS
T1 sequence (P38484 whole entry, looked up): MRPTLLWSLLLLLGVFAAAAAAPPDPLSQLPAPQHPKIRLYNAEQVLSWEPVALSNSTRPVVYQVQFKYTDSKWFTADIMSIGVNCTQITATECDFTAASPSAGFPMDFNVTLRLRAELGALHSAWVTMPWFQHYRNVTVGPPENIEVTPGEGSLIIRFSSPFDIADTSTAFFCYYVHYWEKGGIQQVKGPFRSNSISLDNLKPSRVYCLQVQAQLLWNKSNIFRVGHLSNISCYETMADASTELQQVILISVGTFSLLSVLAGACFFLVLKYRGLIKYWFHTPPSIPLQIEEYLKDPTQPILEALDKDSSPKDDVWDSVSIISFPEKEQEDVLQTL

T2: IL-10 receptors R1 and R2 on HEK-Blue IL-10 reporter cells (UniProt Q13651 22-578; Q08334 20-325, limits assumed)
T2 sequence (looked up) 1: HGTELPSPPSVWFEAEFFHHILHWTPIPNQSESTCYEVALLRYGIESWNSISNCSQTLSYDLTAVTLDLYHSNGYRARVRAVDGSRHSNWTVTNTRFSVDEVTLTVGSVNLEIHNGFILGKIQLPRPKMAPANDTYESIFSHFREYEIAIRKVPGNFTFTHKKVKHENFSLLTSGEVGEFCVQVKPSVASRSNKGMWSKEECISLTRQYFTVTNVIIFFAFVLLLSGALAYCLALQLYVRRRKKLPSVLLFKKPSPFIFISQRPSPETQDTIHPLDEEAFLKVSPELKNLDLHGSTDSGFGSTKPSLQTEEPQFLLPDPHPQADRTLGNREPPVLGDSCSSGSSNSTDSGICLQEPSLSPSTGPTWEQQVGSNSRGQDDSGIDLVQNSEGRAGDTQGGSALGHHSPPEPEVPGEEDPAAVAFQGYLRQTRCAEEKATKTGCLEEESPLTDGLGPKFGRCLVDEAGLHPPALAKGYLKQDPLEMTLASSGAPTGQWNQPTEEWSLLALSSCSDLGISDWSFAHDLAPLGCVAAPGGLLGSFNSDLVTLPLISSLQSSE
T2 sequence (looked up) 2: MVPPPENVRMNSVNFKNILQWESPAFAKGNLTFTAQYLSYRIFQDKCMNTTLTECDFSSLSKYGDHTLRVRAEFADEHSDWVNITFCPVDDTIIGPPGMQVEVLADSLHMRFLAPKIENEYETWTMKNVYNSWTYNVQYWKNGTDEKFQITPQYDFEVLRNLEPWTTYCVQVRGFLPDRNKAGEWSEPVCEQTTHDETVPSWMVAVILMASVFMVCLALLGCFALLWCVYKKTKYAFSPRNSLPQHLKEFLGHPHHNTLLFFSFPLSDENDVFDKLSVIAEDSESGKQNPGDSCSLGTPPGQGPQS


Columns and labels:
[1] = molecular target: T1, IFN-gamma receptor on HEK-Dual cells …; assay: cell-based or functional assay
[2] = molecular target: T2, IL-10 receptors R1 and R2 on HEK-Blue …; assay: cell-based or functional assay

Row | EC50 (HEK Dual cells responding to IFNγ) [1] [nM] | activation of HEK blue cells, apparent KD fit (drop against MutSC1) [2] [fold] | Binder
1 | 0.0328 | – | ORKIFNg-002 (Foldikine-IFNG, single chain dimeric IFN gamma) (ligand) GSQDPYVKEAENLKKYFNAGHSDVADNGTLFLGILKNWKEESDRKIMQSQIVSFYFKLFKNFKDDQSIQKSVETIKEDMNVKFFNSNKKKRDDFEKLTNYSVTDLNVQRKAIHELIQVMASKPHPGQLWAYVKEAENLKKYFNAGHSDVADNGTLFLGILKNWKEESDRKIMQSQIVSFYFKLFKNFKDDQSIQKSVETIKEDMNVKFFNSNKKKRDDFEKLTNYSVTDLNVQRKAIHELIQVMAELSPAA
2 | – | ~2.5 | MutSC1_controlcenter_21 (ligand) KSKAVEQVKNAFNKLQEKGIYKAMSEFDIFINYIEAYMTMNFGGLDYLPNMLRDLRDAFSRVKTFFQMKDQLDNLLLKESLLEDFKGYLGCQALSEMIQFYLEEVMPQAENQDPDIKAHVNSLGENLKTLRLRLRRCHRFLPCENKSKAVEQVKNAFNKLQEKGIYKAMSEFDIFINYIEAYMTMNFGGLDYLPNMLRDLRDAFSRVKTFFQMKDQLDNLLLKESLLEDFKGYLGCQALSEMIQFYLEEVMPQAENQDPDIKAHVNSLGENLKTLRLRLRRCHFLPCEN

Reference: patent US20260008830A1 (FUNDACI CENTRE DE REGULACI GEN MICA, published 2026)
